# In patent US20160289304A1 (VIRO DYNAMICS, published 2016):
# Tests used:
# [1] = molecular target: T1, hemagglutinin (HA) of A/Puerto Rico/8/1934 (PR8, H1N1) (Influenza A virus A/Puerto Rico/8/1934 …, UniProt P03452 18-565); experiment: cell-based or functional assay
# [2] = molecular target: T1, hemagglutinin (HA) of A/Puerto …; experiment: cell-based or functional assay; remark: listed apart in the source
# [3] = molecular target: synthetic peptide #34 […] (Influenza A virus A/Puerto Rico/8/1934 …); experiment: peptide ELISA, peptide coated at 10 µg/ml, mAb at 1 µg/ml
# [4] = molecular target: synthetic peptide #39 […] (Influenza A virus A/Puerto Rico/8/1934 …); experiment: as above
Binder,HI Titer to PR8 [1] [reciprocal dilution],"concentration for complete neutralization of PR8, plaque inhibition assay [2] [µg/mL]","in ovo neutralization, concentration for complete blocking of PR8 growth [2] [µg/mL]",binding result [3],binding result [4]
"39-3F2-2A6 (mAb-2A6) (antibody, V domains shown, also called HANA 39-3F2-2A6; sample 22b) VH: DVKLVESGGGLVKPGGSLKLSCAASGFTFSSYTMSWVRQTPEKRLEWVATISSGGIYTYYPDSVKGRFTISRDNAKNTLYLQMNSLKSEDTAMYYCVRSTSYYFDYWGQGTTLTVSS VL: DIVMTQSPSSLTVTAGEKVTMSCKSSQSLLSDGSQKNYLTWCQQKPGQPPKLLIYWASTRESGVPDRFTGSGSGTDFTLTISSVQAEDLGVYYCQNDHSYPLTFGAGTKLELK",80,0.1,16,binds,
"56-2G9-1B3 (mAb-1B3) (antibody, V domains shown) VH: EVQLVESGGGLVKPGGSLKLSCAASGFIFSSYVMSWVRQTPEKRLEWVATISSGGTNTYYPDSVKGRFTISRDNAKNTLYLQMSSLRSEDTAIYYCVRSYRYYFDYWGQGTTLTVSS VL: DIVMTQSPSSLTVTAGEKVTMSCKSSQSLLNSGSQKNYLTWFQQKPGQSPKLLIYWASSRESGVPDRFTGSGSGTDFTLTISSVQAEDLAVYYCQNDSNYPLTFGAGTKLELK",40,0.1,8,,
"39-4D12-2D11 (mAb-2D11) (antibody, V domains shown, also called HANA 39-4D12-2D11; sample 28b) VH: DVKLVESGGGLVKPGGSPKLSCAASGFTFSSYTMSWVRQTPEKRLEWVATISSGGSYTYYPDSLKGRFTISRDNAKNTLYLQMSSLKSEDTAIYHCVRSTSYYFDYWGQGTTLTVSS VL: DIVMTQSPSSLTVTAGEKVTMNCKSSQSLLSDGSQKNYLTWCQQKPGQPPKLLIYWASTRESGVPDRFTGSGSGTDFTLTIDSVQAEDLGIYYCQNDHSYPLTFGAGTKLELK",20,0.1,4,,binds
